Results from patent US20140274782A1, “AFFINITY REAGENTS AND METHODS FOR DETECTION, PURIFICATION, AND PROTEOMIC ANALYSIS OF METHYLATED PROTEINS” (The Board of Trustees of the Leland Stanford Junior …, priority 2013, published 2014).

T1: G9a and GLP (Homo sapiens, UniProt Q96KQ7+Q9H9B1)
T1 sequence (Q96KQ7 2-1210 limits assumed): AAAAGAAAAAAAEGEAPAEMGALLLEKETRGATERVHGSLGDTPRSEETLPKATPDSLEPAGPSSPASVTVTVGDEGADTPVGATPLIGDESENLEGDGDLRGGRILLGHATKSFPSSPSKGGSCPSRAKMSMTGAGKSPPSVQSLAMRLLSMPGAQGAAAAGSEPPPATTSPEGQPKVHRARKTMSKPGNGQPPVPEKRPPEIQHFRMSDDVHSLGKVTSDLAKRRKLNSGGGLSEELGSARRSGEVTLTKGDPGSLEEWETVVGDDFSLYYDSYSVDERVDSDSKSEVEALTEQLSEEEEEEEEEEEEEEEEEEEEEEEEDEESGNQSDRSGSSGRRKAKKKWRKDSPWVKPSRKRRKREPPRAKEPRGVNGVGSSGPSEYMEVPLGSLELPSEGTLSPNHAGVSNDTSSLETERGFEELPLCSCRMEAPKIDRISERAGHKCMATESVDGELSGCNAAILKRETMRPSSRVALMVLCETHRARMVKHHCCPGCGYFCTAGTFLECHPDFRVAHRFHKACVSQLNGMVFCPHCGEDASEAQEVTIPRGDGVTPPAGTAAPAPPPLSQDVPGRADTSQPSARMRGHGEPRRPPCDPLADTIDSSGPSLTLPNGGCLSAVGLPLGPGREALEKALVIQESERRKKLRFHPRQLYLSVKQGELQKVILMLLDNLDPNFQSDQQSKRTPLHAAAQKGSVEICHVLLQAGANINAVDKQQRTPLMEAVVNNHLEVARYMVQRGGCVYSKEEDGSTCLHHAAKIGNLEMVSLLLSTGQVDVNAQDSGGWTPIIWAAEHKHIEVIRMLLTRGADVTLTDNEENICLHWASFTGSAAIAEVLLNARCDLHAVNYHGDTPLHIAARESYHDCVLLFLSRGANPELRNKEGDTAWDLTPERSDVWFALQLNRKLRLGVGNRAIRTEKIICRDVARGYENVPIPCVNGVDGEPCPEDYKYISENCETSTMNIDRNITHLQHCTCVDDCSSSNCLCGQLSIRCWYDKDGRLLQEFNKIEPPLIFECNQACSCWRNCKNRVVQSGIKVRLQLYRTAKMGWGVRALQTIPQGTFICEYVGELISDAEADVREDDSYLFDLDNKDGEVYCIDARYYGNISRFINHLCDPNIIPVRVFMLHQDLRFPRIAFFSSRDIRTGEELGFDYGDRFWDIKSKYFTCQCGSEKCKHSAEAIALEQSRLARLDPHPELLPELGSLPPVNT
T1 sequence (Q9H9B1 2-1298 limits assumed): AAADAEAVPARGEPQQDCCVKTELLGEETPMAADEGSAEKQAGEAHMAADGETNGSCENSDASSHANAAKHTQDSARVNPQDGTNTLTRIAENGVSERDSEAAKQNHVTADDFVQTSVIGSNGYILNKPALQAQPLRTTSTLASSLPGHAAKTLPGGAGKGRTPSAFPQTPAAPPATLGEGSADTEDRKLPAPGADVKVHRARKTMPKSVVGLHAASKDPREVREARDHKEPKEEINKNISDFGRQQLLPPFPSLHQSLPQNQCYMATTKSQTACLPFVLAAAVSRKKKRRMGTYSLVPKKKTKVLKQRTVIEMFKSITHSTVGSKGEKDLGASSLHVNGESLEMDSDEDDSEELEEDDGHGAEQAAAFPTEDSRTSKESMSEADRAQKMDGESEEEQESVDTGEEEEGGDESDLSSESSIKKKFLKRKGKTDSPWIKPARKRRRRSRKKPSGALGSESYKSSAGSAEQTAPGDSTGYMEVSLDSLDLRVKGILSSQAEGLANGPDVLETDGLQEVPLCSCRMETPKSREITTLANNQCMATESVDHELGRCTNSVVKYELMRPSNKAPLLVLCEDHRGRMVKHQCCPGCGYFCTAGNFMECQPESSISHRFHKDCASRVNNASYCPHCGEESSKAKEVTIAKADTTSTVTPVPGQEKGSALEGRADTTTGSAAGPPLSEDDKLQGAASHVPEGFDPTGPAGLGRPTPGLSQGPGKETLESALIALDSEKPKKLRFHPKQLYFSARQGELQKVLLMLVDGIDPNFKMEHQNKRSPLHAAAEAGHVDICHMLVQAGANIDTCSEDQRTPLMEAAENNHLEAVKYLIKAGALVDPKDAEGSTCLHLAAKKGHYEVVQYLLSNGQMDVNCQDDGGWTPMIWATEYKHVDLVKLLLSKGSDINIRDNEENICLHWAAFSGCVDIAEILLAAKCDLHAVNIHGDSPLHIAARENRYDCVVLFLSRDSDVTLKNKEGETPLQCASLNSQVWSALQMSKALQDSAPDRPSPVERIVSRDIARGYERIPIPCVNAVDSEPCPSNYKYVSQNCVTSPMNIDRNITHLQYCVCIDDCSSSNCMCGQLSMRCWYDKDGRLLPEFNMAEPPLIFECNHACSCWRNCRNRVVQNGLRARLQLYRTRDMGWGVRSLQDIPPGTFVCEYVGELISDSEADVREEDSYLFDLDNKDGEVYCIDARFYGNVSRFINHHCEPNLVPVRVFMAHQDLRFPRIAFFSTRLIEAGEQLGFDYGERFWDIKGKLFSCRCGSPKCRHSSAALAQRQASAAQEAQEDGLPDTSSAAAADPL

B1: AMOT (protein, UniProt Q4VCS5 1-1084, looked up)
Angiomotin: MRNSEEQPSGGTTVLQRLLQEQLRYGNPSENRSLLAIHQQATGNGPPFPSGSGNPGPQSDVLSPQDHHQQLVAHAARQEPQGQEIQSENLIMEKQLSPRMQNNEELPTYEEAKVQSQYFRGQQHASVGAAFYVTGVTNQKMRTEGRPSVQRLNPGKMHQDEGLRDLKQGHVRSLSERLMQMSLATSGVKAHPPVTSAPLSPPQPNDLYKNPTSSSEFYKAQGPLPNQHSLKGMEHRGPPPEYPFKGMPPQSVVCKPQEPGHFYSEHRLNQPGRTEGQLMRYQHPPEYGAARPAQDISLPLSARNSQPHSPTSSLTSGGSLPLLQSPPSTRLSPARHPLVPNQGDHSAHLPRPQQHFLPNQAHQGDHYRLSQPGLSQQQQQQQQQHHHHHHHQQQQQQQPQQQPGEAYSAMPRAQPSSASYQPVPADPFAIVSRAQQMVEILSDENRNLRQELEGCYEKVARLQKVETEIQRVSEAYENLVKSSSKREALEKAMRNKLEGEIRRMHDFNRDLRERLETANKQLAEKEYEGSEDTRKTISQLFAKNKESQREKEKLEAELATARSTNEDQRRHIEIRDQALSNAQAKVVKLEEELKKKQVYVDKVEKMQQALVQLQAACEKREQLEHRLRTRLERELESLRIQQRQGNCQPTNVSEYNAAALMELLREKEERILALEADMTKWEQKYLEENVMRHFALDAAATVAAQRDTTVISHSPNTSYDTALEARIQKEEEEILMANKRCLDMEGRIKTLHAQIIEKDAMIKVLQQRSRKEPSKTEQLSCMRPAKSLMSISNAGSGLLSHSSTLTGSPIMEEKRDDKSWKGSLGILLGGDYRAEYVPSTPSPVPPSTPLLSAHSKTGSRDCSTQTERGTESNKTAAVAPISVPAPVAAAATAAAITATAATITTTMVAAAPVAVAAAAAPAAAAAPSPATAAATAAAVSPAAAGQIPAAASVASAAAVAPSAAAAAAVQVAPAAPAPVPAPALVPVPAPAAAQASAPAQTQAPTSAPAVAPTPAPTPTPAVAQAEVPASPATGPGPHRLSIPSLTCNPDKTDGPVFHSNTLERKTPIQILGQEPDAEMVEYLI
B2: DAZAP1 (protein, UniProt Q96EP5 1-407, looked up)
DAZ-associated protein 1: MNNSGADEIGKLFVGGLDWSTTQETLRSYFSQYGEVVDCVIMKDKTTNQSRGFGFVKFKDPNCVGTVLASRPHTLDGRNIDPKPCTPRGMQPERTRPKEGWQKGPRSDNSKSNKIFVGGIPHNCGETELREYFKKFGVVTEVVMIYDAEKQRPRGFGFITFEDEQSVDQAVNMHFHDIMGKKVEVKRAEPRDSKSQAPGQPGASQWGSRVVPNAANGWAGQPPPTWQQGYGPQGMWVPAGQAIGGYGPPPAGRGAPPPPPPFTSYIVSTPPGGFPPPQGFPQGYGAPPQFSFGYGPPPPPPDQFAPPGVPPPPATPGAAPLAFPPPPSQAAPDMSKPPTAQPDFPYGQYAGYGQDLSGFGQGFSDPSQQPPSYGGPSVPGSGGPPAGGSGFGRGQNHNVQGFHPYRR
B3: CPSF3 (protein, UniProt Q9UKF6 2-684, looked up)
Cleavage and polyadenylation …: SAIPAEESDQLLIRPLGAGQEVGRSCIILEFKGRKIMLDCGIHPGLEGMDALPYIDLIDPAEIDLLLISHFHLDHCGALPWFLQKTSFKGRTFMTHATKAIYRWLLSDYVKVSNISADDMLYTETDLEESMDKIETINFHEVKEVAGIKFWCYHAGHVLGAAMFMIEIAGVKLLYTGDFSRQEDRHLMAAEIPNIKPDILIIESTYGTHIHEKREEREARFCNTVHDIVNRGGRGLIPVFALGRAQELLLILDEYWQNHPELHDIPIYYASSLAKKCMAVYQTYVNAMNDKIRKQININNPFVFKHISNLKSMDHFDDIGPSVVMASPGMMQSGLSRELFESWCTDKRNGVIIAGYCVEGTLAKHIMSEPEEITTMSGQKLPLKMSVDYISFSAHTDYQQTSEFIRALKPPHVILVHGEQNEMARLKAALIREYEDNDEVHIEVHNPRNTEAVTLNFRGEKLAKVMGFLADKKPEQGQRVSGILVKRNFNYHILSPCDLSNYTDLAMSTVKQTQAIPYTGPFNLLCYQLQKLTGDVEELEIQEKPALKVFKNITVIQEPGMVVLEWLANPSNDMYADTVTTVILEVQSNPKIRKGAVQKVSKKLEMHVYSKRLEIMLQDIFGEDCVSVKDDSILSVTVDGKTANLNLETRTVECEEGSEDDESLREMVELAAQRLYEALTPVH
B4: HNRNPR (protein, UniProt O43390 2-633, looked up)
Heterogeneous nuclear …: ANQVNGNAVQLKEEEEPMDTSSVTHTEHYKTLIEAGLPQKVAERLDEIFQTGLVAYVDLDERAIDALREFNEEGALSVLQQFKESDLSHVQNKSAFLCGVMKTYRQREKQGSKVQESTKGPDEAKIKALLERTGYTLDVTTGQRKYGGPPPDSVYSGVQPGIGTEVFVGKIPRDLYEDELVPLFEKAGPIWDLRLMMDPLSGQNRGYAFITFCGKEAAQEAVKLCDSYEIRPGKHLGVCISVANNRLFVGSIPKNKTKENILEEFSKVTEGLVDVILYHQPDDKKKNRGFCFLEYEDHKSAAQARRRLMSGKVKVWGNVVTVEWADPVEEPDPEVMAKVKVLFVRNLATTVTEEILEKSFSEFGKLERVKKLKDYAFVHFEDRGAAVKAMDEMNGKEIEGEEIEIVLAKPPDKKRKERQAARQASRSTAYEDYYYHPPPRMPPPIRGRGRGGGRGGYGYPPDYYGYEDYYDDYYGYDYHDYRGGYEDPYYGYDDGYAVRGRGGGRGGRGAPPPPRGRGAPPPRGRAGYSQRGAPLGPPRGSRGGRGGPAQQQRGRGSRGSRGNRGGNVGGKRKADGYNQPDSKRRQTNNQQNWGSQPIAQQPLQQGGDYSGNYGYNNDNQEFYQDTYGQQWK

Assays:
3×MBT domain of L3MBTL1 = assay: Triple SILAC pull-down, 3xMBT/3xMBTD355N ratio (cytoplasmic, nuclear and chromatin fractions of 293T cells); format: binding, human; settings: SILAC ratio, pull-down 3xMBT vs 3xMBTD355N; for 3xMBT/D355N UNC Heavy: experiment with UNC0638 in heavy SILAC media; for 3xMBT/D355N UNC Light: experiment with UNC0638 in light SILAC media;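 as to all read-outs here: proteins quantified with MaxQuant, requiring at least two unique peptides and quantification in both label directions, normalized to the mean of proteins from a digested loading control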
G9a and GLP = target: T1, G9a and GLP; assay: Triple SILAC pull-down after UNC0638 treatment of 293T cells, DMSO/UNC0638 ratio of protein captured by 3×MBT; format: cell-based; parameters: endogenous in cells; host or cells: HEK 293T; settings: for Relative to UNC0638 UNC Heavy / Relative to UNC0638 UNC Light: SILAC ratio DMSO/UNC0638 of protein pulled down with 3xMBT; for Relative to UNC0638 UNC Heavy: UNC0638 in heavy SILAC media; for Relative to UNC0638 UNC Light: UNC0638 in light SILAC media; for Relative to UNC0638 Average: average of UNC Light and UNC Heavy experiments;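 as to all read-outs here: mass spectrometry (Q-Exactive) SILAC quantitation, DMSO/UNC0638 ratio computed after subtracting 3×MBTD355N mutant pull-down background, only proteins with at least twofold 3×MBT over mutant signal considered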

Molecule | 3xMBT/D355N UNC Heavy (3×MBT domain of L3MBTL1) | 3xMBT/D355N UNC Light (3×MBT domain of L3MBTL1) | Relative to UNC0638 UNC Heavy (G9a and GLP) | Relative to UNC0638 UNC Light (G9a and GLP) | Relative to UNC0638 Average (G9a and GLP)
B1 | 2.95 log base 2 | 2.44 log base 2 | −0.03 log base 2 | 0.39 log base 2 | 0.18 log base 2
B2 | 2.92 log base 2 | 2.10 log base 2 | 0.01 log base 2 | 0.35 log base 2 | 0.18 log base 2
B3 | 3.39 log base 2 | 0.51 log base 2 | 0.30 log base 2 | 0.06 log base 2 | 0.18 log base 2
B4 | 3.20 log base 2 | 3.60 log base 2 | 0.12 log base 2 | 0.24 log base 2 | 0.18 log base 2
